Assay results taken from US20040014191A1, “Nitroreductase enzymes” (priority 1999, published 2004).
Entries after “also recorded” stand apart in the source; their conditions may differ. Read-outs that look alike come from different tables or passages of the source.

Columns and labels:
[1] = test system: Smu2; assay: Kinetic parameters for Smu2; assay type: biochemical, Streptococcus mutans
Experimental: (§1) Quantitative assays using CB 1954 or SN 23862 as substrate were carried out at 37° C. by HPLC as previously described (2) (3). […] Incubation times varied according to the enzyme activity being studied.

[2] = test system: Pae3; assay: Kinetic parameters for Pae3; assay type: biochemical, Pseudomonas aeruginosa; conditions: menadione as substrate, NADPH as cofactor
Experimental: […] […] Incubation times varied according to the enzyme activity being studied.
The protein encoded by Pae3 was overexpressed in E. coli and purified by anion exchange chromatography.

[3] = molecular target: H. influenzae NfnB (Haemophilus influenzae, UniProt Q57431)
[4] = molecular target: C. jejuni NfnB (Campylobacter jejuni, UniProt Q0P9I8)
[5] = test system: Efa 1; assay: Kinetic parameters for Efa 1; assay type: biochemical, Enterococcus faecalis
Source text: This gene is more highly related in sequence to ydgI compared to the other sequences used to search databases.

[6] = molecular target: YodC (Bacillus subtilis, UniProt P81102); assay: Substrate and cofactor specificity for YodC
Experimental: as §1
(§2) Assays were carried out spectrophotometrically at 37° C. in 10 mM Tris pH 7.5 using cytochrome c as terminal electron acceptor.

[7] = test system: Cc1cc2nc3c(=O)[nH]c(=O)nc-3n(C[C@H](O)[C@H](O)[C@H](O)COP(=O)(O)O)c2cc1C; assay: purified protein, by the assay type; conditions: other: flavin substrates, cofactor not given; pH 7.0; 37.0 °C
[8] = test system: Cc1cc2nc3c(=O)[nH]c(=O)nc-3n(C[C@H](O)[C@H](O)[C@H](O)COP(=O)(O)OP(=O)(O)OC[C@H]3O[C@@H](n4cnc5c(N)ncnc54)[C@H](O)[C@@H]3O)c2cc1C; assay: purified protein, by the assay type; conditions: other: flavin substrates, cofactor not given; pH 7.0; 37.0 °C
[9] = test system: CC1=CC(=O)c2ccccc2C1=O; assay: purified protein, by the assay type; conditions: other: 1 mM NADPH; pH 7.0; 37.0 °C
[10] = test system: V79 cells; assay: In vitro cytotoxicity test, prodrug + enzyme + cofactor, SRB assay; assay type: cell-based; conditions: FIG. 4
Experimental: Microtitre plates (96 well) were obtained pre-seeded with V79 cells at 10,000 cells/ml (European Collection of Animal Cell Cultures, ECACC) in DMEM+10% foetal calf serum. All treatments were prepared on duplicate plates and transferred to the cells prior to adding enzyme (10 μl) to the appropriate wells. […] Enzymes were diluted in sterile PBS. All aqueous solutions were filter sterilised before use and operations carried out aseptically in a laminar flow hood. […] Cytotoxicity was quantified by sulphorhodamine B (SRB) assay. Briefly, the growth medium was removed and the cells fixed by addition of 100 μl per well of cold 10% TCA for 30 min. The TCA was removed and the fixed cells washed with water before adding 100 μl per well of 0.4% dye in 1% acetic acid and incubating at room temperature for 30 min. Excess dye was removed and the wells washed 4 times with 1% acetic acid. After air drying at room temperature the dye was solubilised by adding 100 μl of 10 mM Tris to each well and shaking for 15 min. […] Cytotoxicity towards treated cells was expressed as % of A492 of untreated controls and statistical analysis was performed using the Mann-Whitney test. ED50's were caculated using probit analysis.

[11] = test system: recombinant enzymes (antigens); assay: Western blots of antigens with rabbit antisera; assay type: binding; conditions: antisera 1/10000 or 1/20000, ECL detection
Experimental: Recombinant enzymes were run on SDS PAGE 4-20% gradient at 0.05, 0.5, 5, 50 and 500 ng with 500 ng of the other antigens to test cross-reactivity. The antisera were added at a dilution of 1/10 000 or 1/20 000. Secondary antibody dilutions were as shown above and detection was by ECL (Amersham).
Antigens were run on SDS PAGE 4-20% gradient at 0.05, 0.5, 5, 50 and 500 ng with 500 ng of other antigens to test cross-reactivity. The antisera were added at a dilution of 1/10000 (α-P. gingivalis YwrO, α-YwrO BAM and α-H. influenzae NfnB) or 1/20000 (α-E. coli B NfnB and α-YdgI). Secondary antibody dilutions were as shown above and detection was by ECL.

[12] = Nitroreductase enzyme assay with SN 23862 as substrate (HPLC); assay type: biochemical
[13] = assay type: biochemical; conditions: Table 6
[14] = Flavin reductase assay with FMN and FAD; assay type: biochemical
Experimental: as §2

[15] = Quinone reductase assay with menadione, cytochrome c as terminal electron acceptor; assay type: biochemical
Experimental: as §2

[16] = Nitroreductase enzyme assay with CB 1954 as substrate (HPLC); assay type: biochemical
[17] = test system: recombinant enzymes (antigens); assay: Polyclonal antisera titres by ELISA; assay type: binding; conditions: rabbit antiserum
Experimental: Polyclonal antisera were raised against recombinant enzymes by immunising rabbits with […] of protein in 50% PBS:50% Freund's complete adjuvant, total volume 400 μl. Blood was collected by ear bleed after 6-8 weeks and again 10 days after a booster immunisation of protein, and titre assessed by ELISA. 96-well plates were coated with 1 μg ml^−1 of the proteins and blocked with 10% v/v foetal calf serum (FCS), antibodies were diluted in assay buffer (1% FCS) and applied in doubling dilutions across the plate from 1 in 100 to 1 in 51 200 or 1 in 150 to 1 in 76 800. A secondary antibody conjugated with HRP (dilution 1 in 10 000) was used to develop the assay with 3,3′,5,5′-tetramethylbenzidine (TMB) as substrate.
Antisera to E. coli B NfnB and six novel proteins (Haemophilus influenzae and Campylobacter jejuni NfnB homologues, YdgI and YodC of Bacillus subtilis, YwrO of B. amyloliquefaciens and Porphyromonas gingivalis YwrO homologue) have been raised in rabbits by inoculation with 100 μg of protein in PBS+ Freund's complete adjuvant. Titres were assessed by ELISA after 8 weeks, and 10 days after a booster inoculation of a further 100 μg of protein per rabbit. Pre-immune sera were also tested.
96 well plates were coated overnight at 4° C. with the antigens at 1 μg/ml. After washing and blocking antisera were added in doubling dilutions in an appropriate range across the plates. The plates were developed using goat anti-rabbit IgG peroxidase conjugate with TMB as substrate, and read at 450 nm.

[18] = assay type: biochemical; conditions: Table 6; remark: listed apart in the source
[19] = substrates, NADPH preferred cofactor
[20] = listed as P. gingivalis YwrO homologue
[21] = listed as YwrO of P. gingivalis

H. influenzae NfnB, sequence (Q57431 whole entry): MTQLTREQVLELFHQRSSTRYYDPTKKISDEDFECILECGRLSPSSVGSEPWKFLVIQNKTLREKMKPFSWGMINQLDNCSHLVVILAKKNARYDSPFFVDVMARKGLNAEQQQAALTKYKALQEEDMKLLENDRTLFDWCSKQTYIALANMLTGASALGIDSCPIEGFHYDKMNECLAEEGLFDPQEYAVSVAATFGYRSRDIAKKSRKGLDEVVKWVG
YodC, sequence (P81102 2-202): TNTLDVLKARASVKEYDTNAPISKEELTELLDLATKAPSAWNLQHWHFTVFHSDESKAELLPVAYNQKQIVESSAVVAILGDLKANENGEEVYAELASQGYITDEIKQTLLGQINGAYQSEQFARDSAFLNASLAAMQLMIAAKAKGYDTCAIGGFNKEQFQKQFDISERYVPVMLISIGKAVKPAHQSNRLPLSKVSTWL
C. jejuni NfnB, sequence (Q0P9I8 entry or part of it): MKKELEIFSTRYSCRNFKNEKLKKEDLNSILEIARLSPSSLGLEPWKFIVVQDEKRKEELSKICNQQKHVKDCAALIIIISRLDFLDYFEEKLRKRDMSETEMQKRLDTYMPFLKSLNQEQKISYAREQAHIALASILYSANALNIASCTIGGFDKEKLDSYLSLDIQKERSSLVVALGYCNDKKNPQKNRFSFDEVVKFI

`CC1=CC(=O)c2ccccc2C1=O` [Menadione] showed a Km [1, 19] of 2.7 µM, a kcat [1, 19] of 201.0 s⁻¹ and a Km [2] of 3.8 µM. For the same molecule, the Ksi [2] was 18.0 µM, the kcat [2] was 153.4 s⁻¹ and the kcat ([3]; 1 mM NADH) was 24.1. It also gave a kcat ([3]; 1 mM NADPH) of 177.8, a kcat ([4]; 1 mM NADPH) of 66.1 s⁻¹ and a Ksi [5] of 18.0 µM. The Km ([5]; substrates, cofactor not given) was 107 µM, the kcat ([5]; substrates, cofactor not given) was 264.8 s⁻¹ and the kcat ([6]; cofactor NADH) was 415.4 ± 14.8 s⁻¹. The Km ([6]; cofactor NADH, 37° C., 10 mM Tris pH 7.5) was 1 ± 0.1 µM, the Km ([6]; cofactor NADPH) was 1.6 ± 0.2 µM and the kcat ([6]; cofactor NADPH) was 329.5 ± 18.4 s⁻¹.

NADPH showed a Km ([1]; 100 uM menadione) of 1.3 µM, a kcat ([1]; 100 uM menadione) of 188.7 s⁻¹ and a Km [2] of 308 µM. The kcat [2] was 33.8 s⁻¹, the kcat ([3]; menadione 100 μM) was 154.2 and the kcat ([4]; 20 μM menadione) was 62.5 s⁻¹.

“C. jejuni NfnB (Campylobacter jejuni subsp. jejuni NCTC 11168 = ATCC 700819)” showed a Km [7] of 0.7 ± 0.2 μM μM, a Km [8] of 3.3 ± 0.4 μM μM and a Km [9] of 1.3 ± 0.2 μM μM.

B1: P. gingivalis YwrO: nitroreductase from Porphyromonas gingivalis, SEQ ID NO: 25 (protein, listed as Porphyromonas gingivalis)
chain: MKKTLVIVVHPDLTKSVINKAWAKAIEGAATIHHLYEQYPNGQIDLAHEQALLEAHDRIVFQFPLYWYAAPYLLKKWMDEVFTEGWAYGAGGDKMEGKEICAAVSCGSPKSAFAEGAQQCHTLRSYLNVFDGIAAFLRARFTGYHACYDSYNPRLPEMLPANCEAYLRFIKGE
In the case of B1, the “in vitro cytotoxicity of SN 23862 with enzyme” value [10] is reported as “lack of activity”, the “amount of antigen detected by its antiserum in Western blot” value [11] is reported as 500 ng and the “SN 23862 acitvity” value ([12]; Table 6) is reported as “Yes”. For the same molecule, the “activity with SN23862” value [12, 20] was “active with SN23862; also recorded: too slow for kinetic parameters to be calculated accurately”, the Cofactor [13] was “NADH” and the Flavin reductase ([14]; Table 6) was “No”. The “flavin reductase activity” value [14, 20] was “inactive with menadione or flavins”, the “flavin reductase activity” value [14, 21] was “little activity with menadione or flavins” and the Quinone reductase ([15]; Table 6) was “No”. The “activity with menadione / quinone reductase” value [15, 20] was “inactive with menadione or flavins”, the “activity with menadione / quinone reductase” value [15, 21] was “little activity with menadione or flavins” and the “kcat (CB 1954)” value [16] was 3.2 s⁻¹. The kcat for CB1954 (text) [16] was 3.2 s⁻¹, the “reduction of CB1954: activity and product formed” value [16] was “only the 4HX reduction product” and the Km ([16]; Table 6, 37° C., read-out: Km CB 1954) was 1200 µM. For the same molecule, the “CB 1954 product” value ([16]; Table 6, recombinant enzymes) was 4HX, the Km ([16]; read-out: Km for CB1954) was 1200 µM and the Post-boost titre ([17]; 10 days after booster) was 3100. For the same molecule, the “Pre-boost titre (50%)” value ([17]; after 8 weeks) was 1000 and the Azo-Reductase [18] was “Yes”.
